From paper PMC8111768
pKd: −log10 of the molar value.

Tests used:
[1] = target: VIC16 REFORMab EFTEA (G236A/S267E/H268F/S324T/I332E) (mouse | human); assay: SPR
[2] = target: VIC16 REFORMab SDIEALGA (G236A/S239D/A330L/I332E) (mouse | human); assay: SPR

Sequence of recombinant human FcγR3B (O75015 17-200): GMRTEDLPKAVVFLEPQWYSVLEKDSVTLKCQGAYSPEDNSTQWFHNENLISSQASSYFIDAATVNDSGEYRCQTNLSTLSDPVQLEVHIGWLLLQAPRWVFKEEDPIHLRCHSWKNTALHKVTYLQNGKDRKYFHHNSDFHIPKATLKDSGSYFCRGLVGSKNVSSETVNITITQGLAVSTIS

“recombinant human FcγR3B (from UniProt O75015 17-200) (receptor)” was tested, and the pKd [1] was 3.32 and the pKd [2] was 5.49.
